Residue numbers refer to the chain shown, from its start. Like-named read-outs stand apart in the source and are kept apart here.
Columns and labels:
[1] = target: T1, receptor-binding domain (RBD) of the SARS-COV-2 spike (S) protein (SARS-COV-2, UniProt P0DTC2 319-541); assay: On-yeast EC50
[2] = target: T1, receptor-binding domain (RBD) of the …; assay: SPR kinetic
[3] = target: T1, receptor-binding domain (RBD) of the …; assay: monovalent affinity, assay not named
[4] = target: T1, receptor-binding domain (RBD) of the …; assay: SPR equilibrium
[5] = target: T1, receptor-binding domain (RBD) of the …; assay: SPR equilibrium; remark: listed apart in the source
[6] = target: T1, receptor-binding domain (RBD) of the …; assay: SPR kinetic; remark: listed apart in the source
[7] = target: T1, receptor-binding domain (RBD) of the …; assay: SPR kinetic; remark: listed apart in the source
[8] = target: T1, receptor-binding domain (RBD) of the …; assay: SPR equilibrium; remark: listed apart in the source
[9] = target: T1, receptor-binding domain (RBD) of the …; assay: SPR equilibrium; affinity measurement note: Saturation not reached

B1: RBD9 (VHH)
VHH: QVQLQESGGGLVQAGGSLRLSCAASGYIFYSRRMGWYRQAPGKEREFVATIGHGTSTYYADSVKGRFTISRDNAKNTVYLQMNSLKPEDTAVYYCAALPRPHGAGTADARYNLWYWGQGTQVTVSS
EC50 [1]: 131 nM

B2: RBD9i10 (VHH)
VHH: B1 VHH with T55A, D61G, N83D
EC50 [1]: 15.2 nM

B3: RBD10i10 (VHH)
VHH: QVQLQESGGGLVQAGGSLRLSCAASGTIFQVGSMGWYRQAPGKGRKFVATIADGGSTNYAGSVKGRFTISRDNAKNTVYLQMNSLKPEDTAVYYCAALGQVSEYNSASYEWTYPYWGQGTQVTVSS
Kd [2]: 2.14 nM | kon [2]: 154000 M⁻¹ s⁻¹

B4: RBD10i14 (VHH)
VHH: B3 VHH with M34V, G55S
koff [2]: 0.000118 s⁻¹ | kon [2]: 167000 M⁻¹ s⁻¹ | Kd [3]: 0.72 nM

B5: RBD10 (VHH)
VHH: B3 VHH with G44E, K46E, G55S, G61D
Kd [2]: 417 nM | koff [2]: 0.00552 s⁻¹ | kon [2]: 13200 M⁻¹ s⁻¹

B6: RBD11 (VHH)
VHH: QVQLQESGGGLVQAGGSLRLSCAASGNIFAKVWMGWYRQAPGKEREFVASIANGATTYYADSVKGRFTISRDNAKNTVYLQMNSLKPEDTAVYYCAARNWSGLGHFYWGQGTQVTVSS
Kd [4]: 2420 nM

B7: RBD11i12 (VHH)
VHH: B6 VHH with E44G, H105Y, G109S
Kd [4]: 316 nM

B8: RBD7i12 (VHH)
VHH: QVQLQESGGGLVQAGGSLRLSCAASGYISGAYYMGWYRQAPGKEREFVAGIGGGSTNYADSVKGRFTISRDNAKNTVYLQMNSLKPEDTAVYYCAVYQSVAYYCRGYFSYWGQGTQVTVSS
Kd [5]: 2590 nM

B9: RBD7 (VHH)
VHH: B8 VHH with C104Y
Kd [5]: 2210 nM

B10: RBD7i13 (VHH)
VHH: B8 VHH with E46K
Kd [5]: 659 nM

B11: RBD1i1 (VHH)
VHH: QVQLQESGGGLVQAGGSLRLSCAASGTISYENFMGWYRQAPGKERKLVAGINDGTNTYYADSVKGRFTISRDNAKNTVYLQMNSLKPEDTAVYYCAVIGASVLGHAYWGQGTQVTVSS
Kd [6]: 48.1 nM | koff [6]: 0.0023 s⁻¹ | kon [6]: 47700 M⁻¹ s⁻¹

B12: RBD1i13 (VHH)
VHH: B11 VHH with E44G, K86E
Kd [6]: 32.2 nM | koff [6]: 0.00216 s⁻¹ | kon [6]: 67200 M⁻¹ s⁻¹

B13: RBD1 (VHH)
VHH: B11 VHH with K46E, A100T
Kd [6]: 1400 nM | koff [6]: 0.0221 s⁻¹ | kon [6]: 15800 M⁻¹ s⁻¹

B14: RBD8 (VHH)
VHH: QVQLQESGGGLVQAGGSLRLSCAASGTIFGGPWMGWYRQAPGKEREFVAAIARGGNTNYADSVKGRFTISRDNAKNTVYLQMNSLKPEDTAVYYCAARDAVYPYLKYWGQGTQVTVSS
EC50 [1]: 80.8 nM

B15: RBD8i1 (VHH)
VHH: B14 VHH with F29S
EC50 [1]: 35.4 nM

B16: RBD6i10 (VHH)
VHH: QVQLQESGGGLVQAGGSLRLNCAASGSISTTYLMGWYRQAPGKERKFVATINRGGSTYYAVSVKGRFTISRDNAKNTVYLQMNSLKPEDTAVYYCAVGWPDPDYGLAYHRYWGQGTQVTVNS
Kd [7]: 597 nM | koff [7]: 0.00568 s⁻¹ | kon [7]: 9500 M⁻¹ s⁻¹

B17: RBD6i13 (VHH)
VHH: B16 VHH with D103G
Kd [5]: 558 nM

B18: RBD6 (VHH)
VHH: B16 VHH with N21S, K46E, V61D, N121S
Kd [6]: 990 nM | koff [6]: 0.00892 s⁻¹ | kon [6]: 9010 M⁻¹ s⁻¹

B19: RBD6id (VHH)
VHH: B16 VHH with S25N, K46E, V61I, N121S
Kd [7]: 263 nM | koff [7]: 0.00271 s⁻¹ | kon [7]: 10300 M⁻¹ s⁻¹

B20: RBD3i2 (VHH)
VHH: QAQLQESGGGLVQAGGSLRLSCAASGNISDFRFMGWYRQAPGKERELVAAIGRGSNTRYADSVKGRFTISRDNAKNTVYLQMNSLKPEDTAVYYCAARNATYPYYVYWGQGTQVTVSS
Kd [8]: 128 nM

B21: RBD3 (VHH)
VHH: B20 VHH with A2V, R58Y
Kd [9]: 6000 nM

B22: RBD3i17 (VHH)
VHH: B20 VHH with Y59C
Kd [8]: 230 nM

Source: patent US20240182911A1 (University of California, published 2024)
